The values below are quoted from earlier work in US20220280439A1, “METHODS FOR LOWERING THE INFECTION RATE OF VIRUSES” (Finncure Oy, priority 2020, published 2022).

For this data set, the target named is ACE2 (Homo sapiens, UniProt Q9BYF1). Conditions: simulation, ref [8]; for binding affinity towards the ACE2 receptor: compared with hexapeptide YKYRYL.
ACE2, sequence (Q9BYF1 18-805): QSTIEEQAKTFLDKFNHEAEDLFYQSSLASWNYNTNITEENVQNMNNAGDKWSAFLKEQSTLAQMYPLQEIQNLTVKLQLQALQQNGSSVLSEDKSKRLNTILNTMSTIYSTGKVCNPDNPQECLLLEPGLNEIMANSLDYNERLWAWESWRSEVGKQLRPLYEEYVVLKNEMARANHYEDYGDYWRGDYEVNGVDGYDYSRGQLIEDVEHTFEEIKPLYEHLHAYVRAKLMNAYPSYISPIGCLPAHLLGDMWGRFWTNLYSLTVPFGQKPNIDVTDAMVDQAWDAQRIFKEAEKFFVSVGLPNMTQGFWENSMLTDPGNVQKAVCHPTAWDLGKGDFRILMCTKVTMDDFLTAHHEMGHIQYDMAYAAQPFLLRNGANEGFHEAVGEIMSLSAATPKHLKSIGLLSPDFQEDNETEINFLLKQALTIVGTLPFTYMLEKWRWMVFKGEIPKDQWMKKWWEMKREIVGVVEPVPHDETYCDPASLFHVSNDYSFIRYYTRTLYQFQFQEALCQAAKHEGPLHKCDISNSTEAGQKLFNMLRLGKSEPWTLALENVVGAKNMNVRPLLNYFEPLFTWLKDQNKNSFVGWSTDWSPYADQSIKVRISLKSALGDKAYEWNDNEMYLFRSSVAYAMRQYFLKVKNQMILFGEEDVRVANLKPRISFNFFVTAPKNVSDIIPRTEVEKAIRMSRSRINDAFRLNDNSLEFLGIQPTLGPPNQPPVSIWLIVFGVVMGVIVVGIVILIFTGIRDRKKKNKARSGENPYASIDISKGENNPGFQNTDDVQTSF

Turning to “YKYNYI (Potential alternative synthetic hexapeptide variant) [alternative synthetic hexapeptide variant from simulation]”, the “binding affinity towards the ACE2 receptor” value is “even stronger binding affinity”.

In the case of “YKYNYL (Potential alternative synthetic hexapeptide variant) [alternative synthetic hexapeptide variant from simulation]”, the “binding affinity towards the ACE2 receptor” value is “even stronger binding affinity”. With YKYRYL, the Kd (binding to ACE2, estimated) was 46 µM.
